For the experiment, the target named is T1, Ssa1 (UniProt P10591 1-642).
T1 construct: also called a member of the Hsp70 family (Ssa1); Saa1
Kind of experiment: ThT aggregation kinetics, global. The note with it: both partners purified.

T1 sequence (P10591 whole entry): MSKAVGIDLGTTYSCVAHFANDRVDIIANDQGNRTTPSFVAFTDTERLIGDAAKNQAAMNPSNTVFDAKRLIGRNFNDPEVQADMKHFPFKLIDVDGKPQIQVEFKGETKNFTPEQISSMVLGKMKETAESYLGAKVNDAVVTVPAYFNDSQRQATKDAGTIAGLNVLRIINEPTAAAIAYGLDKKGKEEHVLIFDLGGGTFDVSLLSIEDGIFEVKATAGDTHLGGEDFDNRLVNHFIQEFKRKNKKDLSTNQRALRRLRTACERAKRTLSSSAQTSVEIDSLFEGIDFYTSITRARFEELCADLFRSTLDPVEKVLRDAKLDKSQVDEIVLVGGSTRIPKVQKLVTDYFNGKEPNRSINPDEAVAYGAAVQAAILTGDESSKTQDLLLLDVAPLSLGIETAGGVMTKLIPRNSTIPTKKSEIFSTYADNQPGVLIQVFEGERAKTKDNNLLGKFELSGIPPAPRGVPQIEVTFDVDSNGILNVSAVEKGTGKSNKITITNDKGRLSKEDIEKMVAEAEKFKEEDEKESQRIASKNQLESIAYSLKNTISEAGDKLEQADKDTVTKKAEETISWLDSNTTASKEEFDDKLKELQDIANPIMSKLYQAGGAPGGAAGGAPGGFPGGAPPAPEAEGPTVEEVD

B1: yeast prion protein Ure2p (natural protein, UniProt P23202 1-354, looked up)
chain: MMNNNGNQVSNLSNALRQVNIGNRNSNTTTDQSNINFEFSTGVNNNNNNNSSSNNNNVQNNNSGRNGSQNNDNENNIKNTLEQHRQQQQAFSDMSHVEYSRITKFFQEQPLEGYTLFSHRSAPNGFKVAIVLSELGFHYNTIFLDFNLGEHRAPEFVSVNPNARVPALIDHGMDNLSIWESGAILLHLVNKYYKETGNPLLWSDDLADQSQINAWLFFQTSGHAPMIGQALHFRYFHSQKIASAVERYTDEVRRVYGVVEMALAERREALVMELDTENAAAYSAGTTPMSQSRFFDYPVWLVGDKLTIADLAFVPWNNVVDRIGINIKIEFPEVYKWTKHMMRRPAVIKALRGE
notes: also called prion Ure2p
For B1, the Ka was 300000 M⁻¹.

The record behind these values is publication PMC4820785 (Nature Communications, 2016).
